Reference: PMC6499931

B1: BMS-986012, nonfucosylated fully human IgG1 anti-fucosyl-GM1 antibody (antibody, V domains shown)
VH: EVQLVESGGGSVQPGESLRLSCVASGFTFSRYKMNWVRQAPGKGLEWVSYISRSGRDIYYADSVKGRFTISRDNAKNSLYLQMNSLRDEDTAVYYCAGTVTTYYYDFGMDVWGQGTTVTVSS
VL: DIQMTQSPSSLSASVGDRVTITCRASQGISSWLAWYQQKPEKAPKSLIYAASSLQSGVPSRFSGSGSGTDFTLTISSLQPEDFATYYCQQYNSYPPTFGGGTKVEIK
B2: 7E4, fucosylated parental anti-fucosyl-GM1 antibody in conventional fucosylated IgG1 format (antibody, V domains shown)
VH: B1 VH
VL: B1 VL

Tests used:
[1] = molecular target: human FcγRIIIa stably expressed on CHO cells (human) (UniProt P08637)
Sequence of UniProt P08637 (P08637 17-254): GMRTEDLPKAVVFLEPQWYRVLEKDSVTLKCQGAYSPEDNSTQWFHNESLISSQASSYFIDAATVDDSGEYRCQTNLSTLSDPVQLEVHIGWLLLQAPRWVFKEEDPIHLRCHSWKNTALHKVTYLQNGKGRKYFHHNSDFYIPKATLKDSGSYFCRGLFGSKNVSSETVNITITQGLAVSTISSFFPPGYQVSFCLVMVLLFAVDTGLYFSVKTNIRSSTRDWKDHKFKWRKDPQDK

[2] = molecular target: human FcγRIIIa stably expressed on CHO cells (human) (UniProt P08637); assay: flow cytometry on cells

Binder	NK cell-mediated ADCC against the FucGM1+ SCLC cell line DMS79, EC50 [1] [nM]	EC50 [2] [nM]
B1	0.06	3.5
B2	8	138
